Laboratory results published in patent publication US20240325495A1, “FUSION PROTEINS FOR THE TREATMENT OF DISEASE” (Bristol-Myers Squibb Company, priority 2020, published 2024).

Assays:
monkeys [1] = assay: 2-week toxicity study in monkeys, weekly SC
[2] = Linker-cleavage in human serum in vitro (LC-MS/MS); format: in vitro ADME; settings: up to 72 hours
Description: (§1) Various in vitro and in vivo studies were conducted to characterize the PK of BMS-986326 in the nonclinical setting.

[3] = Linker-cleavage ex vivo in monkey serum samples (LC-MS/MS); format: in vitro ADME; settings: monkey serum samples ex vivo after SC administration, up to 168 hours
Description: as §1

[4] = tested on: Kit225 Interferon Regulatory Factor 1 (IRF1)-driven reporter cell line; assay: Kit225 IRF1-driven reporter cell line assay; format: cell-based
monkeys [5] = settings: monkey, in vivo
rats [6] = assay: 2-week toxicity study in rats, once weekly SC; format: in vivo
From the text: (§2) The highest exposures were noted during the first week of each study and diminished considerably during the second week, due to ADA impact. […] Splenic capsular fibroplasia with inflammation was considered adverse at all twice weekly doses due to moderate to marked severity and was also associated with minimal to mild inflammation in the mesentery (adjacent to the stomach and pancreas), which further contributed to the adversity of the finding. […] The primary BMS-986326-related effects were mostly minimal in severity at all once weekly doses (0.25, 0.5, or 1 mg/kg) and included increased eosinophils (1.9× to 6.7×); minimal capsular fibroplasia/fibrosis of spleen without inflammation or involvement of adjacent mesentery; and pharmacologically mediated infiltration of eosinophils into a few tissues, none of which were considered adverse due to low magnitude of change and lack of evidence of any compromise in functional integrity of organs involved.

[7] = Human PK/PD, exposure and efficacious dose projection; settings: projected peak
Description: Human PK was projected using allometric scaling of monkey PK parameters and was assumed to have similar SC bioavailability as in monkeys.
The first approach was based on maximal preclinical efficacy in mouse models dosed with mIL2-CD25.
The selection of the starting dose of 0.1 mg IV is based on the available preclinical PK, toxicology, and pharmacology data. PK/PD modeling and simulations were performed to generate predicted human PK and PD profiles from nonclinical data.

rats and monkeys = assay: Toxicity studies in rats and monkeys: common PD and safety findings; format: in vivo; settings: GLP pivotal nonclinical studies
From the text: The single- and repeat-dose toxicity of BMS-986326 were characterized in a series of studies in rats for up to 2 weeks and in monkeys up to 12 weeks using selected dosing frequencies. Pivotal good laboratory practice (GLP) repeat-dose studies in both species employed SC administration of BMS-986326 and consisted of two 2-week studies in rats using differing dose frequencies (once weekly [QW] vs twice weekly [2QW]), a 2-week once weekly dosing study in monkeys, and a 12-week (once every 3 week, Q3W) dosing study in monkeys. In addition, single-dose exploratory studies were initially completed in both rats and monkeys to explore the tolerability of BMS-986326, and a single-dose GLP IV toxicity and cardiovascular safety study was also completed in telemeterized monkeys using IV dosing to support IV administration in the first-in-human (FIH) single-ascending dose (SAD) study (IM034001).
Intended and unintended PD effects occurred in a dose-dependent manner across all doses of each toxicity study and were generally more pronounced in monkeys than in rats. As an IL-2R agonist, BMS-986326 induced maximal phosphorylation of STAT5 in Treg cells (72% to 95%) across all doses in rats and monkeys, increased Treg cells (up to 63× in monkeys) and/or CD25 expression on CD4 Tregs (up to 4.5× in rats), and raised serum levels of IL-10 (up to 2× in rats and 87× in monkeys). […]

self-blocking homodimer = assay: Biochemical and biophysical characterization: homodimer dissociation; format: binding; settings: in vitro at 37° C.
self-blocking homodimer, sequence (as listed by the source): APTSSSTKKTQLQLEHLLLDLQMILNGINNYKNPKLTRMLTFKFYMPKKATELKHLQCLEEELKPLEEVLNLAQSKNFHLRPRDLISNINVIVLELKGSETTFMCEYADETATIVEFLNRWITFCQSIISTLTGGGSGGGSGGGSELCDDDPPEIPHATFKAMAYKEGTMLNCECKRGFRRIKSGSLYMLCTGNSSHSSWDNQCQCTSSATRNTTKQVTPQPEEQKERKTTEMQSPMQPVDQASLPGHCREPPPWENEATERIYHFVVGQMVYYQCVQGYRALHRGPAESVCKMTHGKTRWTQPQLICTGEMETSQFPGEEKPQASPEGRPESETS

[8] = Nonclinical pharmacokinetics in mice; format: in vivo
Description: as §1

rats [9] = assay: 2-week toxicity study in rats, twice weekly SC; format: in vivo
From the text: as §2

## BMS-986326: recombinant fusion protein of human IL2 and extracellular domain of human CD25, (GGGS)3 linker, non-covalent self-blocking homodimer
Monkeys [1]; 0.125 mg/kg/week
  mean AUC[0-168 h] at NOAEL: 132 µg·h/mL
Monkeys [1]; 2-week weekly SC
  NOAEL: 0.125 mg/kg/week
Monkeys [1]; weekly SC, 2 weeks
  clinically tolerated doses: ≤ 0.25 mg/kg
[2]
  linker-cleavage: did not show signs of linker-cleavage
[3]
  linker-cleavage: did not show signs of linker-cleavage
[4]
  decrease of in vitro potency compared to recombinant IL-2: > 100 fold
[4]; Kit225 IRF1-driven reporter cell line, read-out: average half-maximal effective concentration (EC50)
  EC50: 3.4 nM
Monkeys [5]
  decreased platelets: 0.9-0.6
  decreased red cell mass versus pretest: 0.9-0.6
  doses with adverse inflammation in eye choroid and choroid plexus of brain: ≥ 0.25 mg/kg/week
  increased liver weights: 16-75%
  number of tissues affected by mixed cell inflammation: 16-28
Monkeys [5]; 0.75 mg/kg
  clinical signs: adverse clinical signs of toxicity
  increased heart rate: 25-28%
  mean AUC[0-168 h]: ≥ 601 µg·h/mL
Rats [6]; 1 mg/kg once weekly
  mean AUC at NOAEL: 162 µg·h/mL
Rats [6]; once weekly dosing for 2 weeks
  NOAEL: 1 mg/kg
[7]; 0.1 mg IV
  Fold-change CD8+: <2 fold
  Fold-change Tregs: <2 fold
[7]; 0.3 mg IV
  Fold-change CD8+: <2 fold
  Fold-change Tregs: <2 fold
[7]; 1 mg IV
  Fold-change CD8+: <2 fold
  Fold-change Tregs: 2-4 fold
[7]; 1 mg SC
  Fold-change CD8+: <2 fold
  Fold-change Tregs: 2-3 fold
[7]; 3 mg IV
  Fold-change CD8+: <2 fold
  Fold-change Tregs: 4-8 fold
[7]; 3 mg SC
  Fold-change CD8+: <2 fold
  Fold-change Tregs: 3-5 fold
[7]; 6 mg IV
  Fold-change CD8+: ~2 fold
  Fold-change Tregs: 7-15 fold
[7]; 6 mg SC
  Fold-change CD8+: <2 fold
  Fold-change Tregs: 4-8 fold
[7]; 8 mg SC
  Fold-change CD8+: ~2 fold
  Fold-change Tregs: 5-10 fold
[7]; 9 mg IV (optional Cohort A6)
  Fold-change CD8+: ~2 fold
  Fold-change Tregs: 10-20 fold
Rats and monkeys
  capillary leak syndrome (CLS): has not been observed
self-blocking homodimer
  dissociation half-life of self-blocking homodimer: approximately 3 days
[8]
  total serum clearance (CLTs): 3.25 mL/h/kg
[8]; IV
  steady-state volume of distribution (Vss): 0.0954 L/kg
[8]; SC dosing
  absolute bioavailability: 58%
  apparent elimination half-life (T-HALF): 28.3 h
  time of maximum concentration (Tmax): 7 h
Rats [9]; rat, in vivo
  doses with adverse capsular fibroplasia and inflammation of the spleen: ≥ 0.5 mg/kg
Rats [9]; rat, in vivo, 0.5 mg/kg
  increases in eosinophils versus controls: 3-22 ×
Rats [9]; rats, 2-week studies, all doses
  clinically tolerated doses: ≤ 2.5 mg/kg
Rats [9]; rats, twice weekly dosing study
  NOAEL: a NOAEL was not identified
Rats [9]; rats, ≤[…]
  mean AUC [0-336 h] at tolerated doses: ≤ 600 µg·h/mL
